The supplement of paper PMC9732359
± gives the uncertainty stated by the source.

assay: protein stability index of a GFP-peptide fusion (yeast GPS) (PSI 1-4); higher = more stable; sorted into four equal gates, so the index is relative within each strain; details: doa10∆
How it was run: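 The protein stability index combines read frequencies across sorting gates, each weighted by its gate number and then summed. To obtain those frequencies, a pooled yeast library of GFP fusions to tiled 17-residue yeast protein peptides, on a plasmid also expressing Cherry, was grown to mid-log phase in leucine-free medium. The cells were sorted into four equal gates by GFP/Cherry ratio before plasmid amplification by PCR and Illumina sequencing.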

Point of comparison: SQKHNGRILKWLWPLCR [CDC53], protein stability index 1.52 ± 0.063. Against it:
- SPDGRNFQVEYAVKAVE [PRE10] — higher, 2.8 ± 0.079
- SPDSTVNRSVVVSAVGE [YAR002W/NUP60] — higher, 3.11 ± 0.084
- SPEGRLFQVEYSLEAIK [PUP2] — higher, 2.37 ± 0.19
- SPFLMGHPMTKSVYETP [SEC65] — higher, 2.28 ± 0.067
- SPIGFTNSPQISVTRQV [SMC2] — higher, 2.92 ± 0.052
- SPIKNGSCTRQLAGKSG [YOR098C/NUP1] — higher, 3.32 ± 0.084
- SPKPYAVKYGLNHVVSL [RPL8B] — higher, 1.96 ± 0.07
- SPLLESDSIEKIVEIDR [PUP2] — higher, 3.48 ± 0.11
- SPMINSTSSGKVSYAVK [SNM1] — higher, 2.6 ± 0.11
- SPQAVSSFVRQELAKSI [PRE1] — higher, 2.33 ± 0.11
- SPTSPSYSPTSPSYSPT [RPO21] — higher, 2.74 ± 0.037
- SPYERRLIDLIRNSGEK [RPL36A] — higher, 1.86 ± 0.093
- SQIIPLMKKACYVGLLT [SNU114] — higher, 1.67 ± 0.049
- SQLKKSKAQQKTAEQVA [RPL7A] — higher, 2.7 ± 0.071
- SQLKKTKAQQKTAEQIA [RPL7B] — higher, 2.9 ± 0.085
- SQLQEQFNKILPEPTEG [FAS1] — higher, 2.82 ± 0.1
- SQRPGARILARSERKRT [ITC1] — higher, 3.14 ± 0.18
- SQSLTSILVIVQKILPL [SWI1] — lower, 1.38 ± 0.041
- SQSRSAKAGLTFPVGRV [HTA1] — higher, 2.8 ± 0.071
- SQTNNSFLSGVKSLLSE [SIR4] — higher, 2.98 ± 0.069
- SRDKTIKVWTIKGQCLA [ASC1] — within error, 1.63 ± 0.078
- SRFSPEKLAVSALEQAI [YGL100W/SEH1] — higher, 2.19 ± 0.098
- SRGNGGKKVLNKNQLLK [POP1] — higher, 1.86 ± 0.14
- SRKQKVIKTLTVDVSSP [RPL22B] — higher, 2.52 ± 0.094
- SRLLDILEDYCYFRDFE [ISW2] — higher, 1.71 ± 0.088
- SRPEYSCTFWSDKESNA [YJL039C/NUP192] — higher, 2.08 ± 0.063
- SRQKSGLFDSFTNGVLA [YML031W/NDC1] — higher, 1.68 ± 0.064
- SRQVQKRPRSRTLTAVH [RPS7A] — higher, 2.54 ± 0.035
- SRRFKNGFQTGSASKAS [RPL37A] — higher, 2.76 ± 0.075
- SRRLMKSLEDLSCQYDN [RPO31] — higher, 2.04 ± 0.11
- SRSSVCVKAIEALFQSR [YCG1] — higher, 3.14 ± 0.064
- SSATIVLCLTRSSYMLE [YCG1] — higher, 1.76 ± 0.035
- SSDDRVKVLAATNRVDV [RPT5] — higher, 2.66 ± 0.18
- SSFKEDCLSFAPTLSQT [SSN2] — higher, 2.7 ± 0.084
- SSFSLTFFPRCIIAVSC [POP1] — higher, 1.93 ± 0.029
- SSGDFDDNNNNNNNNNN [GRR1] — higher, 3.11 ± 0.06
- SSISWKNIAQCLSDYTK [YJL039C/NUP192] — higher, 2.05 ± 0.08
- SSKKSKRLDKVGKKKGG [LRP1] — higher, 2 ± 0.08
- SSKYAYMMNSQSPRGKI [YLR018C/POM34] — higher, 2.83 ± 0.062
- SSLFNNSTNSNTTKPAF [YJL041W/NSP1] — higher, 2.45 ± 0.054
- SSLHSPTSDEPVPESAG [SRB4] — higher, 2.61 ± 0.065
- SSLLYTYDENDDFFKEL [ESC2] — higher, 2.52 ± 0.13
- SSLNGTNAKIPQFDSTQ [SSN3] — higher, 3.06 ± 0.08
- SSLVQKGLETIDNGAES [RPC53] — higher, 2.65 ± 0.26
- SSNISPEQVYSLLLTNV [ARP7] — higher, 2.27 ± 0.035
- SSNPNSSLHSPTSDEPV [SRB4] — higher, 3.09 ± 0.13
- SSSSLECATCHGNLASC [RPO31] — higher, 2.79 ± 0.046
- SSTIDAPAFHTSGKVEL [SRB8] — higher, 2.9 ± 0.28
- SSTLGIDLEDIKEELTK [PCI8] — higher, 2.93 ± 0.091
- SSVIQNYDIITASSLAH [YML103C/NUP188] — higher, 1.69 ± 0.079
- SSVMSSPRVEKRSFSST [YOR098C/NUP1] — higher, 2.75 ± 0.057
- STFRLNLSVTSPYNADF [RPO21] — higher, 2.21 ± 0.05
- STFTKHLIKCFFKITLQ [ITC1] — within error, 1.43 ± 0.039
- STGLKSASDALKGRVVE [RPS1A] — higher, 3.29 ± 0.078
- STIITKAINQELEDVAV [YCS4] — higher, 2.96 ± 0.23
- STKKIQVATKYASLKLP [YMR129W/POM152] — higher, 1.78 ± 0.047
- STKKKILGIHTSKMNLS [RPT2] — higher, 3.47 ± 0.13
- STLHMLGYTHIAINFTV [RPP1] — within error, 1.5 ± 0.041
- STLKSFFTNPNKKRPSS [YOR098C/NUP1] — higher, 2.79 ± 0.052
- STLTTISGNPPLLYNSL [SRB5] — higher, 2.66 ± 0.043
- STLYKYLKESKRKYDEI [SWI3] — higher, 3.51 ± 0.12
- STPNFGGNSNKSPPQFF [SIN4] — higher, 2.88 ± 0.039
- STRKTPNGEGSKTWETY [RPS20] — higher, 3.19 ± 0.17
- STRVEFEKLYSDLMKFL [FAS2] — higher, 3.45 ± 0.3
- STSENKISEGSAKPTFS [YOR098C/NUP1] — higher, 3.63 ± 0.18
- STSKFESQYPIVTEQPS [SWP82] — higher, 2.41 ± 0.041
- STSNALKVLSGDEGYNE [SNF12] — higher, 3.39 ± 0.11
- STSNTPSPPNVIITDGT [YDL088C/ASM4] — higher, 2.79 ± 0.031
- STSSGKVSYAVKKPQKS [SNM1] — higher, 2.04 ± 0.13
- STTNSDVSLLLQRDLFI [RGR1] — higher, 2.76 ± 0.093
- STVIEEFTLFMDIAERI [YGL172W/NUP49] — higher, 2.37 ± 0.053
- SVAKIRFPETMDETQTR [RPO21] — higher, 3.55 ± 0.073
- SVAVHFQYVIDESSGTS [SMC4] — higher, 1.99 ± 0.081
- SVERGRKRAHSLVSTQS [REC8] — higher, 3.21 ± 0.082
- SVFYNIANMVLPPEKIY [SIR2] — higher, 1.78 ± 0.048
- SVGLPSKVASSLVIIIL [ECM29] — higher, 2.21 ± 0.048
- SVGNLEVVKSLYDRPLK [NAS6] — higher, 3.29 ± 0.19
- SVNFFVSLLKKNWQNVG [RPL1A] — lower, 1.19 ± 0.07
- SVNPAMLPGSSNGGGKV [RPO31] — higher, 2.98 ± 0.071
- SVPTNSADAPNPNNVNV [RET1] — higher, 3.24 ± 0.084
- SVTEIPLKLSGEGPFTV [YMR129W/POM152] — higher, 2.96 ± 0.072
- SVVRGNTFKVLSKFFFF [COB] — higher, 2.11 ± 0.065
- SWEEGTRQSSRNFDTHE [MCD1] — higher, 3.26 ± 0.12
- SYEVEHVIQIPLNKPLL [TAF14] — higher, 2.46 ± 0.069
- SYFLQERYFDCCTKFFT [PCI8] — within error, 1.54 ± 0.069
- SYHNGNLKGRPYTGWVD [FAS2] — higher, 2.07 ± 0.096
- SYIGTIIVKDKSNDSEG [POP1] — within error, 1.4 ± 0.1
- SYINVTFRAVVFKPFLG [RPC25] — the same, 1.52 ± 0.084
- SYLEERERQVNEKLADL [RPC53] — higher, 3.2 ± 0.14
- SYRNGMASYMLNSFAFE [YJR042W/NUP85] — higher, 2.29 ± 0.09
- SYVAVLGMGKAVEKTLA [POP7] — higher, 1.75 ± 0.13
- SYVETLDSMIELFKDYK [MED1] — higher, 3.24 ± 0.085
- SYYGIVCLMQISTRERD [RRP6] — higher, 1.96 ± 0.12
- TAASVFKELCYENKDNL [PRE3] — higher, 2.67 ± 0.051
- TAFKATVFFLIRVAETR [YJL039C/NUP192] — within error, 1.53 ± 0.087
- TAFKSSPFGGSSHAKGI [RPS23A] — higher, 3.02 ± 0.067
- TAGKTSVKSARTSTRGR [SNF2] — higher, 3.44 ± 0.058
- TAGNWVASQTVKKVIEI [PRE2] — higher, 3.18 ± 0.12
- TAIAHSIREQVHMYHKS [SNF5] — higher, 1.89 ± 0.044
- TAIDKNGNITYSEEPRE [FAS2] — higher, 2.87 ± 0.069
- TASSLAHDYNNDQDMFT [YML103C/NUP188] — higher, 3.19 ± 0.067
- TAVAFWSWDIAVDNCAI [HRT1] — lower, 1.33 ± 0.07
- TCILHGPVAAQFTKVID [FAS1] — higher, 1.73 ± 0.064
